# Substrate: OC[C@H]1O[C@@](CO)(O[C@H]2O[C@H](CO)[C@@H](O)[C@H](O)[C@H]2O)[C@@H](O)[C@@H]1O
# Test: initial rates, glucose release by glucose assay kit, confirmed by HPLC; Michaelis-Menten fit
# Format: biochemical, Aspergillus oryzae
# Conditions: total activity (glucose release), 55°C, potassium phosphate buffer, 0.005–0.5 M sucrose
# Source text: initial rates, glucose release by glucose assay kit, confirmed by HPLC; Michaelis-Menten fit on N.BfrA (native β-fructosidase BfrA)
protein,measurement,value
"N.BfrA (native β-fructosidase BfrA) (Aspergillus oryzae) (protein, native, purified from A. oryzae FS4 mycelia; N-glycosylated; 95 kDa by SDS-PAGE, monomer; CDS 1860 bp; mature 65298 Da calculated; 40 kDa contaminant band) IDYNAAPPNLSTLANGSLYDTWRPRAHILPPNGRIGDPCGHYTDPDTGLFHVGFLYNGSGIAGATTDDMVRFRDLNPNGSQFIMPGGKNDPVAVFDGSVIPKGIDDKPTLLYTSVTSLPIHWSIPYNPGAETQSLAVTSNGGRNFTKLDRPPVIPLPPSDSDVTAFRDPYAFQSPELDAAADSAPGTWYTAISGGVHEDGPGQFLYRQDQKEMSLESWEYLGLWWQEKVNTTWGNGDWAGGWGFNFETGNVFGLNEEGYSVDGEMFMTLGTEGSGTPIVSQVSSIHDMLWAAGNVSNNGNVTFTPTMAGVFDWGASGYAAAGHILPATSQVSTKSGAPDRFISFVWLTGDLFEQAKGYPTSQQNWVGTLLLPRELHIKTISNVVDNELAREEGSSWRVERGQSGIELKTLGIDIARETREALMSGPKITEPERTSKEAGLVPFQVSPTTKFHVLTAQLSFPRSARNSDLQAGFQVLSSDLESTTIYYQFSNESIIVDRSNTSAAAKTTNGIVSTNESGRLRLFDLQGDAQEIETLDLTVVVDNSVLEIYANGRFALSTWARSWYKNSTDIKFYHNGAGEVTFSNVTVSEGLFEAWPERV",Km,37.19 ± 5.28 mM
same,Vmax,1.28e+08 µM/min/mg
same,kcat,10000 ± 390 s⁻¹
same,kcat/Km,269000 ± 39700 M⁻¹ s⁻¹
